Measured values from paper PMC10786891, “Massively parallel profiling of RNA-targeting CRISPR-Cas13d”.

T1: EsCas13d, nuclease-dead (Eubacterium siraeum, UniProt B0MS50, R295A;H300A;R849A;H854A)
T1 sequence: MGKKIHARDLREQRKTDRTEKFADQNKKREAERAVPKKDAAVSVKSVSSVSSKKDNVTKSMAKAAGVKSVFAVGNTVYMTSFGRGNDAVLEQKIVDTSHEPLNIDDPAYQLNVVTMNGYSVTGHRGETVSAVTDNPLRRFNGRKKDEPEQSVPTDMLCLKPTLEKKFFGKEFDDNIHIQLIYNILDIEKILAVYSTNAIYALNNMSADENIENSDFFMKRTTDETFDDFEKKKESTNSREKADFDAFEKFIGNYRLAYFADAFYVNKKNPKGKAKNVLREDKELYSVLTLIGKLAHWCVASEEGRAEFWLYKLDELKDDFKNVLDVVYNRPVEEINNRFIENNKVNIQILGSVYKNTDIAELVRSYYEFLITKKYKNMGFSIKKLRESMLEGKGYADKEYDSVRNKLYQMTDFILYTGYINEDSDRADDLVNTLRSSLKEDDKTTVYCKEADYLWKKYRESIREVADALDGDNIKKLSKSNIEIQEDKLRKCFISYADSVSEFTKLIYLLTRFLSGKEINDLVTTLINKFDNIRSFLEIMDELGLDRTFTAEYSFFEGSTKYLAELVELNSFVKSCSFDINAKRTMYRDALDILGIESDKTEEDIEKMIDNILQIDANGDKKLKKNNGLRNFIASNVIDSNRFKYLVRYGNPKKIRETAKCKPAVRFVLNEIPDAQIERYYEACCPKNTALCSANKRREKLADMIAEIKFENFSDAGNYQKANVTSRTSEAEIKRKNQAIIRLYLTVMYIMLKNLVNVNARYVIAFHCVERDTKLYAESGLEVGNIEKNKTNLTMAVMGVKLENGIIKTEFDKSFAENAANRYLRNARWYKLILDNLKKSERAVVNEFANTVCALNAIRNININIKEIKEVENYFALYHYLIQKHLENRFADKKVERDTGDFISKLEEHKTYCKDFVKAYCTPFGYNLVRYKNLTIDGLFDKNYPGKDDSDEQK

B1: target 1 complement block 6-13 (mixed)
RNA 1: CACCCGUGCAAAAAUGCAGGGGUCUAAAACUGAGCGGAUAACCUCUCUAUGG
RNA 2: GGGAAUGGAUCCACAUCUACGAAUUCGUACCAUAGAGACCAAUAGGGCUCACCGAGAUCGGAAGAGCACACGU
B2: target 1 insC 3' of 15,insU 3' of 13 (mixed)
RNA 1: CACCCGUGCAAAAAUGCAGGGGUCUAAAACUGAGCGGAUAACCUCUCUAUGG
RNA 2: GGGAAUGGAUCCACAUCUACGAAUUCGUACCAUAGAGCAGUGUUAUCCGCUCACCGAGAUCGGAAGAGCACACGU
B3: target 1 insG 3' of 19,insA 3' of 3 (mixed)
RNA 1: CACCCGUGCAAAAAUGCAGGGGUCUAAAACUGAGCGGAUAACCUCUCUAUGG
RNA 2: GGGAAUGGAUCCACAUCUACGAAUUCGUACCAUGAGAGAGGUUAUCCGCUACACCGAGAUCGGAAGAGCACACGU
B4: target 1 A1C,G17A (mixed)
RNA 1: CACCCGUGCAAAAAUGCAGGGGUCUAAAACUGAGCGGAUAACCUCUCUAUGG
RNA 2: GGGAAUGGAUCCACAUCUACGAAUUCGUACCAUAAAGAGGUUAUCCGCUCCCCGAGAUCGGAAGAGCACACGU
B5: target 1 A1G,G17A (mixed)
RNA 1: CACCCGUGCAAAAAUGCAGGGGUCUAAAACUGAGCGGAUAACCUCUCUAUGG
RNA 2: GGGAAUGGAUCCACAUCUACGAAUUCGUACCAUAAAGAGGUUAUCCGCUCGCCGAGAUCGGAAGAGCACACGU
B6: target 1 U8G,G17C (mixed)
RNA 1: CACCCGUGCAAAAAUGCAGGGGUCUAAAACUGAGCGGAUAACCUCUCUAUGG
RNA 2: GGGAAUGGAUCCACAUCUACGAAUUCGUACCAUACAGAGGUUAGCCGCUCACCGAGAUCGGAAGAGCACACGU
B7: target 1 insC 3' of 20,insA 3' of 10 (mixed)
RNA 1: CACCCGUGCAAAAAUGCAGGGGUCUAAAACUGAGCGGAUAACCUCUCUAUGG
RNA 2: GGGAAUGGAUCCACAUCUACGAAUUCGUACCACUAGAGAGGUUAAUCCGCUCACCGAGAUCGGAAGAGCACACGU
B8: target 1 del8,del14 (mixed)
RNA 1: CACCCGUGCAAAAAUGCAGGGGUCUAAAACUGAGCGGAUAACCUCUCUAUGG
RNA 2: GGGAAUGGAUCCACAUCUACGAAUUCGUACCAUAGAGGGUUACCGCUCACCGAGAUCGGAAGAGCACACGU
B9: target 1 C7U,G15U (mixed)
RNA 1: CACCCGUGCAAAAAUGCAGGGGUCUAAAACUGAGCGGAUAACCUCUCUAUGG
RNA 2: GGGAAUGGAUCCACAUCUACGAAUUCGUACCAUAGAUAGGUUAUUCGCUCACCGAGAUCGGAAGAGCACACGU
B10: target 1 A1U,G17A (mixed)
RNA 1: CACCCGUGCAAAAAUGCAGGGGUCUAAAACUGAGCGGAUAACCUCUCUAUGG
RNA 2: GGGAAUGGAUCCACAUCUACGAAUUCGUACCAUAAAGAGGUUAUCCGCUCUCCGAGAUCGGAAGAGCACACGU
B11: target 1 del8,del19 (mixed)
RNA 1: CACCCGUGCAAAAAUGCAGGGGUCUAAAACUGAGCGGAUAACCUCUCUAUGG
RNA 2: GGGAAUGGAUCCACAUCUACGAAUUCGUACCAAGAGAGGUUACCGCUCACCGAGAUCGGAAGAGCACACGU
B12: target 1 insC 3' of 18,insG 3' of 4 (mixed)
RNA 1: CACCCGUGCAAAAAUGCAGGGGUCUAAAACUGAGCGGAUAACCUCUCUAUGG
RNA 2: GGGAAUGGAUCCACAUCUACGAAUUCGUACCAUACGAGAGGUUAUCCGCGUCACCGAGAUCGGAAGAGCACACGU
B13: target 1 insU 3' of 7,insU 3' of 4 (mixed)
RNA 1: CACCCGUGCAAAAAUGCAGGGGUCUAAAACUGAGCGGAUAACCUCUCUAUGG
RNA 2: GGGAAUGGAUCCACAUCUACGAAUUCGUACCAUAGAGAGGUUAUCUCGCUUCACCGAGAUCGGAAGAGCACACGU
B14: target 1 G17A,A18U (mixed)
RNA 1: CACCCGUGCAAAAAUGCAGGGGUCUAAAACUGAGCGGAUAACCUCUCUAUGG
RNA 2: GGGAAUGGAUCCACAUCUACGAAUUCGUACCAUUAAGAGGUUAUCCGCUCACCGAGAUCGGAAGAGCACACGU
B15: target 1 C7G,A14C (mixed)
RNA 1: CACCCGUGCAAAAAUGCAGGGGUCUAAAACUGAGCGGAUAACCUCUCUAUGG
RNA 2: GGGAAUGGAUCCACAUCUACGAAUUCGUACCAUAGAGCGGUUAUGCGCUCACCGAGAUCGGAAGAGCACACGU
B16: target 1 insU 3' of 21,insA 3' of 7 (mixed)
RNA 1: CACCCGUGCAAAAAUGCAGGGGUCUAAAACUGAGCGGAUAACCUCUCUAUGG
RNA 2: GGGAAUGGAUCCACAUCUACGAAUUCGUACCUAUAGAGAGGUUAUCACGCUCACCGAGAUCGGAAGAGCACACGU
B17: target 1 C6G,U10C (mixed)
RNA 1: CACCCGUGCAAAAAUGCAGGGGUCUAAAACUGAGCGGAUAACCUCUCUAUGG
RNA 2: GGGAAUGGAUCCACAUCUACGAAUUCGUACCAUAGAGAGGUCAUCGGCUCACCGAGAUCGGAAGAGCACACGU
B18: target 1 insA 3' of 22,insU 3' of 18 (mixed)
RNA 1: CACCCGUGCAAAAAUGCAGGGGUCUAAAACUGAGCGGAUAACCUCUCUAUGG
RNA 2: GGGAAUGGAUCCACAUCUACGAAUUCGUACACAUAUGAGAGGUUAUCCGCUCACCGAGAUCGGAAGAGCACACGU
B19: target 1 G5U,C7U (mixed)
RNA 1: CACCCGUGCAAAAAUGCAGGGGUCUAAAACUGAGCGGAUAACCUCUCUAUGG
RNA 2: GGGAAUGGAUCCACAUCUACGAAUUCGUACCAUAGAGAGGUUAUUCUCUCACCGAGAUCGGAAGAGCACACGU
B20: target 1 insA 3' of 22,insC 3' of 17 (mixed)
RNA 1: CACCCGUGCAAAAAUGCAGGGGUCUAAAACUGAGCGGAUAACCUCUCUAUGG
RNA 2: GGGAAUGGAUCCACAUCUACGAAUUCGUACACAUAGCAGAGGUUAUCCGCUCACCGAGAUCGGAAGAGCACACGU
B21: target 1 insA 3' of 3,insC 3' of 3 (mixed)
RNA 1: CACCCGUGCAAAAAUGCAGGGGUCUAAAACUGAGCGGAUAACCUCUCUAUGG
RNA 2: GGGAAUGGAUCCACAUCUACGAAUUCGUACCAUAGAGAGGUUAUCCGCUACCACCGAGAUCGGAAGAGCACACGU
B22: target 1 C7G,U8A (mixed)
RNA 1: CACCCGUGCAAAAAUGCAGGGGUCUAAAACUGAGCGGAUAACCUCUCUAUGG
RNA 2: GGGAAUGGAUCCACAUCUACGAAUUCGUACCAUAGAGAGGUUAAGCGCUCACCGAGAUCGGAAGAGCACACGU
B23: target 1 C6A,U11A (mixed)
RNA 1: CACCCGUGCAAAAAUGCAGGGGUCUAAAACUGAGCGGAUAACCUCUCUAUGG
RNA 2: GGGAAUGGAUCCACAUCUACGAAUUCGUACCAUAGAGAGGAUAUCAGCUCACCGAGAUCGGAAGAGCACACGU
B24: target 1 G17A (mixed)
RNA 1: CACCCGUGCAAAAAUGCAGGGGUCUAAAACUGAGCGGAUAACCUCUCUAUGG
RNA 2: GGGAAUGGAUCCACAUCUACGAAUUCGUACCAUAAAGAGGUUAUCCGCUCACCGAGAUCGGAAGAGCACACGU
B25: target 1 insG 3' of 7,insA 3' of 5 (mixed)
RNA 1: CACCCGUGCAAAAAUGCAGGGGUCUAAAACUGAGCGGAUAACCUCUCUAUGG
RNA 2: GGGAAUGGAUCCACAUCUACGAAUUCGUACCAUAGAGAGGUUAUCGCGACUCACCGAGAUCGGAAGAGCACACGU
B26: target 1 insC 3' of 13,insG 3' of 9 (mixed)
RNA 1: CACCCGUGCAAAAAUGCAGGGGUCUAAAACUGAGCGGAUAACCUCUCUAUGG
RNA 2: GGGAAUGGAUCCACAUCUACGAAUUCGUACCAUAGAGAGCGUUAGUCCGCUCACCGAGAUCGGAAGAGCACACGU
B27: target 1 A9U,A16C (mixed)
RNA 1: CACCCGUGCAAAAAUGCAGGGGUCUAAAACUGAGCGGAUAACCUCUCUAUGG
RNA 2: GGGAAUGGAUCCACAUCUACGAAUUCGUACCAUAGCGAGGUUUUCCGCUCACCGAGAUCGGAAGAGCACACGU
B28: target 1 del5,del7 (mixed)
RNA 1: CACCCGUGCAAAAAUGCAGGGGUCUAAAACUGAGCGGAUAACCUCUCUAUGG
RNA 2: GGGAAUGGAUCCACAUCUACGAAUUCGUACCAUAGAGAGGUUAUCCUCACCGAGAUCGGAAGAGCACACGU

These binders were tested against T1, EsCas13d, nuclease-dead (assay: crRNA (strand 1, pre-loaded); Mg2+; 40 mM Tris-HCl pH 7.5, 150 mM NaCl, 6 mM MgCl2, 1 mM DTT, 0.1% Tween-20, 0.2 mg/ml BSA; 25 C; 10 min per concentration, then washed). Conditions: tags: His6-TwinStrep-SUMO cleaved; N-terminal SNAP kept (SNAP-Surface 488); label: 3' end held by stalled T7 RNA polymerase.

Binder	Kd
B1	92 ± 15 nM
B2	26 ± 5 nM
B3	49 ± 5 nM
B4	~45 nM
B5	41 ± 8 nM
B6	72 ± 15 nM
B7	10.1 ± 0.4 nM
B8	34.1 ± 2.7 nM
B9	13.1 ± 1 nM
B10	36 ± 10 nM
B11	64 ± 7 nM
B12	35.7 ± 2 nM
B13	15.2 ± 0.6 nM
B14	50 ± 12 nM
B15	33.5 ± 2.9 nM
B16	20.3 ± 0.9 nM
B17	14.2 ± 0.4 nM
B18	47 ± 6 nM
B19	53 ± 6 nM
B20	47 ± 19 nM
B21	62 ± 19 nM
B22	7.45 ± 0.24 nM
B23	28.1 ± 1.7 nM
B24	27.4 ± 1.7 nM
B25	7.33 ± 0.33 nM
B26	13 ± 0.9 nM
B27	45 ± 6 nM
B28	13.9 ± 0.7 nM
